Test results: paper PMC5816707

Columns and labels:
[1] = target: T1, TIA1 (Homo sapiens (cDNA from HEK293 cells), UniProt P31483 1-386); assay: EMSA
T1 sequence: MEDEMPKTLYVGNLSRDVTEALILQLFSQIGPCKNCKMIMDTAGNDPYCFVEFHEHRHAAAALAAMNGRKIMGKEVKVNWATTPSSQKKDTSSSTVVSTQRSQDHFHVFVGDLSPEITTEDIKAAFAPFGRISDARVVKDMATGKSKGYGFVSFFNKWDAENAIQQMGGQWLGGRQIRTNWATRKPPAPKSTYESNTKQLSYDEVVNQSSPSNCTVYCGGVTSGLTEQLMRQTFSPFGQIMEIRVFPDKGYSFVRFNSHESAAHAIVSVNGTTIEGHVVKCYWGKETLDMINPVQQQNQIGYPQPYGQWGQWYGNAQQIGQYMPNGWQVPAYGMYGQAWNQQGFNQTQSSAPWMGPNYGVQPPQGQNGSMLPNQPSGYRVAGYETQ

[2] = target: T2, TIAL1 (Homo sapiens (cDNA from HEK293 cells), UniProt Q01085 1-375); assay: EMSA
T2 sequence: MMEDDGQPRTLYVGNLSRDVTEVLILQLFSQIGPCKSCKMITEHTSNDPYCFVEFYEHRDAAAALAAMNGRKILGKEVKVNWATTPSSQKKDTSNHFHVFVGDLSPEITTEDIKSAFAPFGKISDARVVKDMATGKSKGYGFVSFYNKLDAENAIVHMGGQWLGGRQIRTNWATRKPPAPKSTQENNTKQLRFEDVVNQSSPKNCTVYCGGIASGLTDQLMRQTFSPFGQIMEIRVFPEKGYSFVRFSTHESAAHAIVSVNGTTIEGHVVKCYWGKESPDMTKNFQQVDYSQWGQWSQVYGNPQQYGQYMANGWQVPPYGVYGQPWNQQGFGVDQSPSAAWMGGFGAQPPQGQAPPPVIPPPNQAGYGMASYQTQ

## AAAAAAAAAAAAAAAAAA (ssRNA) [poly(A)18]
[1]
  binding result: no binding
[2]
  binding result: no binding
